US9393309B2, “Self-gelatinizable nucleic acid” (Kyoto University, priority 2011, dated 2016)
Positions count from the first letter of the chain named.

Tests used:
[1] = tested on: RAW264.7 cells; assay: Release of TNF-α from RAW264.7 cells (ELISA); assay type: cell-based, murine; settings: 0.5, 1 or 2 μg/ml, 8 hours
Protocol: In a RPMI1640 medium to which 10% heat inactivated FBS, 0.15% sodium bicarbonate, 100 units/ml penicillin, […] streptomycin and 2 mML-glutamine were added, murine macrophage-like RAW264.7 cells were proliferated in humidified air containing 5% CO2 at 37° C. Subsequently, cells were seeded on a 24-well or 96-well culture plate at a density of 5×10^5 cells/well, and cultured for 24 hours before use.
The RAW264.7 cells were seeded on a 24-well plate at a density of 2.5×10^5 cells/well, and incubated for 24 hours before treatment. Then, ssDNA, dsDNA, or several kinds of polypodnas diluted in 0.5 ml of Opti-MEM were added to the cells at a final concentration of 0.5, 1 or 2 μg/ml. The cells were incubated for 8 hours, the supernatant was recovered and stored at −70° C. before use. The concentrations of TNF-α and IL-6 in the supernatant were measured by Enzyme-Linked Immunosorbent Assay (ELISA) using an OptEIA™ set (Pharmingen, San Diego, Calif., USA).
The same experiment as in Example 22 was carried out except that each poolypodna preparation was prepared in the same manner as in Example 1 by using the sequences in Table 1. However, the added DNA was equal amount in each case.

[2] = Evaluation of gelation at various DNA concentrations and NaCl concentrations; assay type: physicochemical; design: key: ◯: the mark “∘” is given to cases in which gelation was observed; X: the mark “x” is given to cases of a solution state (sol-state)
Protocol: […] The gel formation and the gel strength were measured by a gel strength analyzer (gel strength meter, Nakayamadenki Co., Ltd, Osaka).
Specifically, by changing the DNA concentrations of an aqueous solution of Tripodona (4-18-18) (X=4) (SEQ ID NOs.: 1, 2 and 3), Tetrapodna (4-18-18) (X=4) (SEQ ID NOs.: 2, 4, 5 and 6), Hexapodna (4-18-18) (X=4) (SEQ ID NOs.: 2, 3, 4, 7, 9 and 10) and Tetrapodna (8-16-16) (X=8) (SEQ ID NOs.: 22, 23, 24 and 25) as shown in the lines of Table 4, and by changing the NaCl concentration as shown in the rows of Table 4, whether or not a gel is formed at various DNA concentrations and NaCl concentrations was evaluated. The results are shown such that the mark “∘” is given to cases in which gelation was observed, and the mark “x” is given to cases of a solution state (sol-state).

[3] = Temperature conditions for gel formation; assay type: physicochemical; settings: NaCl 150 mM
Protocol: Furthermore, we investigated a possibility that temperature conditions are also involved in gelation. Tetrapodna (4-18-18) (SEQ ID NOs.: 2, 4, 5 and 6), Hexapodna (4-18-18) (SEQ ID NOs.: 2, 3, 4, 7, 9 and 10) and Tetrapodna (8-16-16) (SEQ ID NOs.: 22, 23, 24 and 25) were used to examine the temperature conditions for allowing a gel be present or a sol to be present by fixing the NaCl concentration at 150 mM and changing the DNA concentration variously.

[4] = Percentage of remaining gels with the passage of time; assay type: physicochemical; settings: DNA 0.5 mM, NaCl 150 mM
Protocol: Gels were formed by adjusting the NaCl concentration at 150 mM in an aqueous solution containing Tetrapodna (12-14-14) (SEQ ID NOs.: 30, 31, 32 and 33) at a DNA concentration of 0.1 mM, 0.25 mM or 0.5 mM, and the percentage of the remaining gels was measured with the passage of time. The results are shown in a graph in the left upper side of FIG. 17.
Gels were formed in conditions at a certain DNA concentration (0.5 mM) and a certain NaCl concentration (150 mM), and the percentage of the remaining gels was measured with the passage of time by using Tetrapodna (respectively, SEQ ID NOs.: 2, 4, 5 and 6, SEQ ID NOs.: 18, 19, 20 and 21, SEQ ID NOs.: 22, 23, 24 and 25, SEQ ID NOs.: 26, 27, 28 and 29, as well as SEQ ID NOs.: 30, 31, 32 and 33) having various lengths of the cohesive protruding end (4, 6, 8, 10 or 12 bases). The results are shown in a graph in the left lower side of FIG. 17. […] When 12 hours had passed, the percentage of the remaining gels became about 50%.
Gels were formed by variously changing the NaCl concentrations (5 mM, 50 mM, 100 mM or 150 mM) of an aqueous solution containing Tetrapodna (12-14-14) (SEQ ID NOs.: 30, 31, 32 and 33) at a DNA concentration of 0.5 mM, and the percentage of the remaining gels was measured with the passage of time. The results are shown in a graph in the right upper side of FIG. 17. […] At a low salt concentration (5 mM), almost all the formed gels became in a sol state when about 6 hours had passed. When the salt concentration was increased to 50 mM, solation tendency was weakened, a change from a gel into a sol occurred moderately (about 40% when 12 hours had passed).
The percentage of the remaining gels was measured with the passage of time in the same manner as in (8-3) except that Tetrapodna (4-18-18) (SEQ ID NOs.: 2, 4, 5 and 6) was used instead of Tetrapodna (12-14-14) (SEQ ID NOs.: 30, 31, 32 and 33). The results are shown in a graph in the right lower side of FIG. 17. […] In (8-3), Tetrapodna (12-14-14) (the length of the cohesive protruding end is 12 bases) was used. In (8-4), Tetrapodna (4-18-18) (the length of the cohesive protruding end is 4 bases) was used.

[5] = Formation of hydrogel from nucleic acid units without ligase; assay type: physicochemical; settings: without DNA ligase
Protocol: A NaCl solution was added to an ODN solution (polypodna) such that the final Na^+ concentration was 5 to 150 mM. The gel formation and the gel strength were measured by a gel strength analyzer (gel strength meter, Nakayamadenki Co., Ltd, Osaka).
A structure to be a hydrogel (a nucleic acid monomer and an estimated nucleic acid unit) in conditions at room temperature, at 5 mM to 150 mM sodium chloride concentration (150 mM is substantially physiological concentration), and not containing a DNA ligase was elucidated. […] For convenience, nucleic acid units estimated to be formed according to the number of nucleic acid monomers capable of constituting the nucleic acid unit were represented by xxxpodna (xxxpod-like structure forming nucleic acid, xxx is substituted by tri (3), tetra (4) and the like, according to the number of nucleic acid monomers capable of constituting the nucleic acid unit). In Table 2 described below, xxxpodna is an estimated nucleic acid unit, and each of xxx-Y-N is a nucleic acid monomer that can be a constituent element of the nucleic acid unit (xxxpodna) which is mentioned above thereof. When the descriptions of Ys are different from each other, different nucleic acid units can be formed. N denotes numbering of nucleic acid monomers constituting each of the estimated nucleic acid units.
Unlike (1-1) described above, gelation can be controlled by using a nucleic acid monomer including cohesive protruding ends which are not attached to themselves (that is, not palindrome sequence).

[6] = Gel formation in a living body after subcutaneous injection of sol; assay type: in vivo; settings: total DNA 2 mM, NaCl 5 mM, back of mouse
Description: The hydrogel produced in Example 1 was able to be prepared in a sol state by appropriately adjusting conditions. Therefore, the hydrogel was able to be administered in a living body by injection. […] Thus, it was confirmed that a gel is formed in a living body only by preparing the hydrogel in accordance with the present invention in a sol state and administering the hydrogel to a living body.

[7] = Release of encapsulated OVA from gel; assay type: physicochemical; settings: DNA 0.5 mM
Protocol: By controlling the nature and salt concentration of protruding ends of Tetrapodna, the change of the releasing rate of an encapsulated compound in a gel was examined. Specifically, Tetrapodna (4-18-18) (SEQ ID NOs.: 2, 4, 5 and 6) including a cohesive protruding end and Tetrapodna (4-18-18) (SEQ ID NOs.: 58, 59, 60 and 61) as a control including a non-cohesive protruding end were used. In an aqueous solution of Tetrapodna which had been prepared such that the DNA concentration was 0.5 mM, the NaCl concentration was adjusted to 5 mM or 150 mM. When the NaCl concentration was increased, egg albumin (OVA, concentration of 2.5 μg/μl) was added as an encapsulated substance to cause gelation, and then the percentage of OVA released from the gel with the passage of time was measured.

[8] = tested on: mouse dendritic cell DC2.4; assay: Stimulation of dendritic cells by gel; assay type: cell-based; settings: gel brought into contact with DC2.4

Molecule: ssDNA36: single strand 36 mer ODN, SEQ ID No. 108 (DNA TCGCTGACGTTGCAGACATCACGTTGACGCTGTCGA; unmodified DNA) [reference compound]
- TNF-α release [1]: the TNF-α release hardly occurred

B1: Tetrapodna(8-16-16): four ODNs, SEQ ID NOs.: 22, 23, 24 and 25, 8-base cohesive protruding end (nucleic acid)
DNA 1: ACGTACGTTAGCACGACATCAGCGTCTGACGCTTCGTCGA
DNA 2: ACGTACGTTCGACGAAGCGTCAGATCTCGTCAACGCTGCA
DNA 3: ACGTACGTTGCAGCGTTGACGAGACAGACGCTTGACGCTA
DNA 4: ACGTACGTTAGCGTCAAGCGTCTGCGCTGATGTCGTGCTA
modifications: unmodified DNA
- gelation ([2]; Na+ 2 mM, DNA 0.6 mM): ◯
- gelation ([2]; Na+ 10 mM, DNA 0.5 mM): X
- gelation ([2]; Na+ 20 mM, DNA 0.5 mM): ◯
- temperature at which gel is present ([3]; DNA concentration 0.5 mM): gel at 55 °C
- temperature at which sol is present ([3]; DNA concentration 0.5 mM): sol at 75 °C
- initial percentage of gels [4]: about 100%
- percentage of the remaining gels with the passage of time [4]: decreased with the passage of time only slightly
- gel formation [5]: gels can be prepared

B2: control Tetrapodna: Tetrapodna (4-18-18), SEQ ID NOs.: 58, 59, 60 and 61, non-cohesive protruding end, control (nucleic acid)
DNA 1: AGTCTCGCTGACGTTGCAGACATCACGTTGACGCTGTCGA
DNA 2: AGTCTCGACAGCGTCAACGTGAAACGTGAAGCGTCTGCGA
DNA 3: AGTCTCGCAGACGCTTCACGTTGCAGACAGACGTTGACGA
DNA 4: AGTCTCGTCAACGTCTGTCTGCTGTCTGCAACGTCAGCGA
modifications: unmodified DNA
- gel formation in a living body [6]: a gel was not formed in a living body
- gelation ([7]; NaCl 5 mM or 150 mM): Gelation hardly found
- percentage of OVA released from the first ([7]; OVA 2.5 μg/μl): ~100%

B3: Hexapodna(4-18-18): six ODNs, SEQ ID NOs.: 2, 3, 4, 7, 9 and 10, 4-base cohesive protruding end (nucleic acid)
DNA 1: B2 DNA 2 with G2C, T3G, C4T
DNA 2: ACGTTCGCAGACGCTTCACGTTGAGCACAGACGTTGACGA
DNA 3: B2 DNA 1 with G2C, T3G, C4T
DNA 4: ACGTTCGTCAACGTCTGTGCTCGCAGCGTCTTAACGTCGA
DNA 5: ACGTTCGACGTTAAGACGCTGCAGACGTTCAGGACTACGA
DNA 6: ACGTTCGTAGTCCTGAACGTCTTGTCTGCAACGTCAGCGA
modifications: unmodified DNA
- gelation ([2]; Na+ 2 mM, DNA 0.8 mM): ◯
- gelation ([2]; Na+ 20 mM, DNA 0.7 mM): X
- gelation ([2]; Na+ 50 mM, DNA 0.5 mM): X
- gelation ([2]; Na+ 50 mM, DNA 0.6 mM): X
- gelation ([2]; Na+ 50 mM, DNA 0.7 mM): ◯
- gelation ([2]; Na+ 100 mM, DNA 0.4 mM): X
- gelation ([2]; Na+ 100 mM, DNA 0.5 mM): ◯
- gelation ([2]; Na+ 100 mM, DNA 0.6 mM): ◯
- gelation ([2]; Na+ 150 mM, DNA 0.3 mM): X
- gelation ([2]; Na+ 150 mM, DNA 0.4 mM): ◯
- temperature at which gel is present ([3]; DNA concentration 1.0 mM): gel at 65 °C
- temperature at which sol is present ([3]; DNA concentration 1.0 mM): sol at 75 °C
- temperature at which gel is present ([3]; DNA concentration 0.3-0.8 mM): gel at 55 °C
- temperature at which sol is present ([3]; DNA concentration 0.3-0.8 mM): sol at 65 °C
- gel formation [5]: gels can be prepared

B4: Tetrapodna (4-18-18) which does not contain a CpG motif: four ODNs, SEQ ID NOs.: 14, 15, 16 and 17, not containing CpG (nucleic acid)
DNA 1: AGCTAGGCACCGTAGTCAATCGCCGATGTGTCCAAAGCCT
DNA 2: AGCTAGGCTTTGGACACATCGGTGCTCCTACCGTACTCCT
DNA 3: AGCTAGGAGTACGGTAGGAGCAGTTTCGGCATGTCCACCT
DNA 4: AGCTAGGTGGACATGCCGAAACCGATTGACTACGGTGCCT
modifications: DNA, all phosphodiester, methylation of C not given here
- immunological stimulation of dendritic cell [8]: did not immunologically stimulate a mouse dendritic cell
